Measurements as given in patent US20230250178A1.

Experiments:
human CCR8 (human) [1] = molecular target: human CCR8 (human) (UniProt P51685); assay: FACS, CHO-hCCR8
human CCR8 (human) [2] = molecular target: human CCR8 (human) (UniProt P51685); assay: FACS, BODIPY-labelled antibody, HuT78
[3] = molecular target: cynomolgus CCR8 (cynomolgus); assay: FACS, CHO-cynoCCR8
human CCR8 (human) [4] = molecular target: human CCR8 (human) (UniProt P51685); assay: cell-based or functional assay

Chain of cynomolgus CCR8 (cynomolgus) (O97665 other isoform, or with tags, fused parts or gaps): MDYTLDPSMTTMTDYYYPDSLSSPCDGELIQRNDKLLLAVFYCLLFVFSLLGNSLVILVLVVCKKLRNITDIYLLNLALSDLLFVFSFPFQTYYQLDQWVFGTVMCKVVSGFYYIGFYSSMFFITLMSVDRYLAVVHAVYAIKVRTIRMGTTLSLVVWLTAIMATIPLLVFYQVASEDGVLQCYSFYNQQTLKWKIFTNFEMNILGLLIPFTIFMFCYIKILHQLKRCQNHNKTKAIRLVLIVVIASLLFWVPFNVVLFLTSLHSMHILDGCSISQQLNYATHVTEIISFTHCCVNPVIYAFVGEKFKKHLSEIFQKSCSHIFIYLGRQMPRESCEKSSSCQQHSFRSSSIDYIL

B1: 433H (antibody, from another filing, V domains shown)
VH: EVQLVETGGGLVQPKGSLRLSCAASGFPFNTFAMNWVRQAPGKGLEWLARIRSKSNNYATYYADSVKDRFTISRDDSRRMLYLLMNNVKFEDTAIYYCVRGKENNYGYAMDYWGQGTSVTVSS
VL: DIVMTQAAPSVPVTPGESVSISCRSSQSLLHSNGNTYLYWFLQRPGQSPQLLIYRMSNLASGVPDRFSGSGSGTAFTLRISRVEAEDVGVYYCMQHLEYPFTFGIGTKLELKR
B1 was tested, and the EC50 (human CCR8 (human) [1]) was 2.8 nM, the FACS HuT78 [MFI] (human CCR8 (human) [2]) was 50 MFI and the EC50 [3] was 12.1 nM. The IC50, Ca flux assay (human CCR8 (human) [4]) was 1.3 nM and the IC50, inhibition of CCL1 induced β-arrestin signaling (human CCR8 (human) [4]) was 0.78 nM.
